T1: GST-LGN/GPSM2 wild type, full-length recombinant (pGEX 6P-2-LGN/GPSM2, E. coli)
T1 chain: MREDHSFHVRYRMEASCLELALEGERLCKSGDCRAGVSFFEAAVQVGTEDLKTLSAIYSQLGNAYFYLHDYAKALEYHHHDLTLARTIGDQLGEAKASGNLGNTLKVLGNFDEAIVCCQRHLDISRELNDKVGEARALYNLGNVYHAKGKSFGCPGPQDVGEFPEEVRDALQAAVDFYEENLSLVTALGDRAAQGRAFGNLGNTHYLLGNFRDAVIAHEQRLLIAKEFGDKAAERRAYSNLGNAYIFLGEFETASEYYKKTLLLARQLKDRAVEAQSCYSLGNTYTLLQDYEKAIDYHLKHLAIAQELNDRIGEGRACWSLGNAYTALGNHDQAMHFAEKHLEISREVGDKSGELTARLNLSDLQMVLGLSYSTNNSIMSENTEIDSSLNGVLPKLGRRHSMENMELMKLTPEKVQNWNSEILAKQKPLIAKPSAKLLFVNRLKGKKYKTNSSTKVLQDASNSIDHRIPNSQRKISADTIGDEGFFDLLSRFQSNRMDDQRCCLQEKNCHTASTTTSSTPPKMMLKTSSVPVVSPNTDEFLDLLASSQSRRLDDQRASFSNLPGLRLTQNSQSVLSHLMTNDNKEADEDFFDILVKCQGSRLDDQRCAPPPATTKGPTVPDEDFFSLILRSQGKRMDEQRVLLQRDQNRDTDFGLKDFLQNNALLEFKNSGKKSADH

T2: His-tagged full-length recombinant LGN/GPSM2 (pET28a-LGN/GPSM2, E. coli)
T2 chain: T1 chain

B1: recombinant Aurora kinase A (SignalChem) (protein)
chain: MDRSKENCISGPVKATAPVGGPKRVLVTQQFPCQNPLPVNSGQAQRVLCPSNSSQRIPLQAQKLVSSHKPVQNQKQKQLQATSVPHPVSRPLNNTQKSKQPLPSAPENNPEEELASKQKNEESKKRQWALEDFEIGRPLGKGKFGNVYLAREKQSKFILALKVLFKAQLEKAGVEHQLRREVEIQSHLRHPNILRLYGYFHDATRVYLILEYAPLGTVYRELQKLSKFDEQRTATYITELANALSYCHSKRVIHRDIKPENLLLGSAGELKIADFGWSVHAPSSRRTTLCGTLDYLPPEMIEGRMHDEKVDLWSLGVLCYEFLVGKPPFEANTYQETYKRISRVEFTFPDFVTEGARDLISRLLKHNPSQRPMLREVLEHPWITANSSKPSNCQNKESASKQS
B2: recombinant Aurora kinase B (SignalChem) (protein)
chain: MAQKENSYPWPYGRQTAPSGLSTLPQRVLRKEPVTPSALVLMSRSNVQPTAAPGQKVMENSSGTPDILTRHFTIDDFEIGRPLGKGKFGNVYLAREKKSHFIVALKVLFKSQIEKEGVEHQLRREIEIQAHLHHPNILRLYNYFYDRRRIYLILEYAPRGELYKELQKSCTFDEQRTATIMEELADALMYCHGKKVIHRDIKPENLLLGLKGELKIADFGWSVHAPSLRRKTMCGTLDYLPPEMIEGRMHNEKVDLWCIGVLCYELLVGNPPFESASHNETYRRIVKVDLKFPASVPMGAQDLISKLLRHNPSERLPLAQVSAHPWVRANSRRVLPPSALQSVA
B3: recombinant full-length PBK/TOPK (Invitrogen) (protein)
chain: MEGISNFKTPSKLSEKKKSVLCSTPTINIPASPIMQKLGFGTGVNVYLMKRSPRGLSHSPWAVKKINPICNDHYRSVYQKRLMDEAKILKSLHHPNIVGYRAFTEASDGSLCLAMEYGGEKSLNDLIEERYKASQDPFPAAIILKVALNMARGLKYLHQEKKLLHGDIKSSNVVIKGDFETIKICDVGVSLPLDENMTVTDPEACYIGTEPWKPKEAVEENGVITDKADIFAFGLTLWEMMTLSIPHINLSNDDDDEDKTFDESDFDDEAYYAALGTRPPINMEELDESYQKVIELFSVCTNEDPKDRPSAAHIVEALETDV

How the values were obtained:
[1] = biological target: T1, GST-LGN/GPSM2 wild type, full-length …
[2] = biological target: T2, His-tagged full-length recombinant …

Protein	in vitro kinase assay (autoradiography, [gamma-32P]-ATP) (GST-LGN/GPSM2 S401A)	in vitro kinase assay (autoradiography, [gamma-32P]-ATP) [1]	in vitro kinase assay (western blot with anti-phosphorylated threonine antibody) [2]	in vitro kinase assay with GST-LGN/GPSM2 WT and alanine substitutes (autoradiography) [1]
B1	Substitution of serine 401 to alanine distinguished the phosphorylation of GST-LGN/GPSM2 by both Aurora kinase A and B	the phosphorylation of GST-LGN/GPSM2 by both Aurora kinase A and B		
B2	Substitution of serine 401 to alanine distinguished the phosphorylation of GST-LGN/GPSM2 by both Aurora kinase A and B	the phosphorylation of GST-LGN/GPSM2 by both Aurora kinase A and B		
B3		The autoradiography images also showed phosphorylation of the LGN/GPSM2 protein by PBK/TOPK (FIG. 8C)	found phosphorylation of the LGN/GPSM2 protein by PBK/TOPK in vitro (FIG. 8B)	PBK/TOPK, which was has been shown to phosphorylate LGN/GPSM2 in FIG. 8, did not phosphorylate these amino acids identified here (FIG. 10C)
